{"source": "paper PMC2933323", "about": "(Nature structural & molecular biology, 2010)", "molecules": {"B1": {"name": "phosRb^771–928 (domain or fragment)", "chain": "YASTRPPTLSPIPHIPRSPYKFPSSPLRIPGGNIYISPLKSPYKISEGLPTPTKMTPRSRILVSIGESFGTSEKFQKINQMVCNSDRVLKRSAEGSNPPKPLKKLRFDIEGSDEADGSKHLPGESKFQQKLAEMTSTRTRMQKQKMNDSMDTSNKEEK"}, "B2": {"name": "phosRb^771–874 (domain or fragment)", "chain": "YASTRPPTLSPIPHIPRSPYKFPSSPLRIPGGNIYISPLKSPYKISEGLPTPTKMTPRSRILVSIGESFGTSEKFQKINQMVCNSDRVLKRSAEGSNPPKPLKK"}, "B3": {"name": "Rb^870–882 peptide (peptide)", "peptide": "KPLKKLRFDIEGS"}}, "key": {"[1]": {"target": "endogenous Rb of CV-1 cells (African green monkey (endogenous in CV-1))", "experiment": "co-IP"}, "[2]": {"target": "Rb expressed from CMV-Rb in Saos-2 cells (UniProt P06400)", "experiment": "co-IP"}, "[3]": {"target": "catalytic subunit of protein phosphatase 1 (PP1c), α isoform (human) (UniProt P62136)", "sequence (P62136 1-300)": "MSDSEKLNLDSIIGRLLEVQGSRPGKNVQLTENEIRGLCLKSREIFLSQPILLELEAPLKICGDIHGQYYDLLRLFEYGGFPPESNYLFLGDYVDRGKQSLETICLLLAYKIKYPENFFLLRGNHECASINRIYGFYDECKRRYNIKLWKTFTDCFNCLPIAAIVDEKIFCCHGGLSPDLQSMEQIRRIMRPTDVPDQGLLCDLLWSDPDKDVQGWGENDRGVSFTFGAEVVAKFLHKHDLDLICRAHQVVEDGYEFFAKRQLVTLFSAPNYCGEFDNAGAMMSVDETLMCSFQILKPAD"}, "[4]": {"target": "catalytic subunit of protein phosphatase 1 (PP1c), α isoform (human, UniProt P62136 1-300)", "experiment": "ITC"}}}
{"molecule": "endogenous PP1 of CV-1 cells (enzyme)", "values": [{"measurement": "PP1 co-precipitated, percent of the immunoprecipitated Rb", "setting": "[1]", "result": 2, "unit": "%"}]}
{"molecule": "PP1 in transfected Saos-2 cells (exogenous myc-PP1c together with endogenous PP1) (from UniProt P62136 1-330) (enzyme)", "values": [{"measurement": "PP1 co-precipitated, percent of the immunoprecipitated Rb", "setting": "[2]", "result": 30, "unit": "%"}]}
{"molecule": "B1", "values": [{"measurement": "apparent KM of dephosphorylation by PP1c (steady-state analysis)", "setting": "[3]", "result": 6, "unit": "µM"}]}
{"molecule": "B2", "values": [{"measurement": "apparent KM of dephosphorylation by PP1c (steady-state analysis)", "setting": "[3]", "result": 30, "unit": "µM"}]}
{"molecule": "B3", "values": [{"measurement": "Kd", "setting": "[4]", "result": 1.2, "unit": "µM"}]}
